{"source": "paper PMC6021343", "target": "Transferrin receptor 1 (human (endogenous in HeLa)) (UniProt P02786)", "sequence (P02786 whole entry)": "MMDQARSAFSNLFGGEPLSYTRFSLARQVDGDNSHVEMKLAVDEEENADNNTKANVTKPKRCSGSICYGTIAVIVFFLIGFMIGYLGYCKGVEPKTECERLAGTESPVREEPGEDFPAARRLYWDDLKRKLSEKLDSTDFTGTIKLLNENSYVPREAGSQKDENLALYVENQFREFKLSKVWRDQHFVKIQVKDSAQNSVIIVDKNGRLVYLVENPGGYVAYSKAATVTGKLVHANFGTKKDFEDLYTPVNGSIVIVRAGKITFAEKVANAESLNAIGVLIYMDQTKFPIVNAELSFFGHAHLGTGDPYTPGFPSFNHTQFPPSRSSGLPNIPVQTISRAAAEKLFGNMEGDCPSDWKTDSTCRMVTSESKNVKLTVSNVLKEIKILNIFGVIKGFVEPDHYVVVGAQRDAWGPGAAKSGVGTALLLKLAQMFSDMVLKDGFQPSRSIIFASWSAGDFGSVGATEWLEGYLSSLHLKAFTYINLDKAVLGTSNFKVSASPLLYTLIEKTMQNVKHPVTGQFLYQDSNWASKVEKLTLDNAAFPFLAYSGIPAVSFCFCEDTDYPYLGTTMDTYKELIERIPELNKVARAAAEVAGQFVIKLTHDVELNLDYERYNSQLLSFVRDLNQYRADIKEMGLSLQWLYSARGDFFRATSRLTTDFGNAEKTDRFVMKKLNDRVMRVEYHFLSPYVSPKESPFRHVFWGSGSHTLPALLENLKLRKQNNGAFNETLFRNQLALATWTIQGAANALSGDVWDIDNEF", "data": [{"substance": "human H-ferritin loaded with about 350 iron ions per cage (from UniProt P02794 1-183) (natural protein)", "values": [{"measurement": "iron uptake by HeLa cells (ICP-MS of lysates) after 5 h with H-350 1 μM: decrease of uptake when 20 μM Holo-transferrin was added to the medium", "value": 50, "unit": "%"}]}]}
